Test results published in patent publication US20070196354A1, “Method of treating diabetes by inhibiting degradation of at least one of crebl1, atf6, and hnf-4 alpha by htra” (priority 2003, published 2007).

Tests used:
CREBL1 = biological target: T1, CREBL1 (Homo sapiens, UniProt Q99941); test: In vitro protease assay, CREBL1 captured on resin; format: biochemical; conditions: 50 μg/ml, 37° C., overnight (O/N), anti-c-Myc detection
T1 construct: expressed in transfected cells; host or cells: HEK293T
T1 sequence (Q99941 1-703): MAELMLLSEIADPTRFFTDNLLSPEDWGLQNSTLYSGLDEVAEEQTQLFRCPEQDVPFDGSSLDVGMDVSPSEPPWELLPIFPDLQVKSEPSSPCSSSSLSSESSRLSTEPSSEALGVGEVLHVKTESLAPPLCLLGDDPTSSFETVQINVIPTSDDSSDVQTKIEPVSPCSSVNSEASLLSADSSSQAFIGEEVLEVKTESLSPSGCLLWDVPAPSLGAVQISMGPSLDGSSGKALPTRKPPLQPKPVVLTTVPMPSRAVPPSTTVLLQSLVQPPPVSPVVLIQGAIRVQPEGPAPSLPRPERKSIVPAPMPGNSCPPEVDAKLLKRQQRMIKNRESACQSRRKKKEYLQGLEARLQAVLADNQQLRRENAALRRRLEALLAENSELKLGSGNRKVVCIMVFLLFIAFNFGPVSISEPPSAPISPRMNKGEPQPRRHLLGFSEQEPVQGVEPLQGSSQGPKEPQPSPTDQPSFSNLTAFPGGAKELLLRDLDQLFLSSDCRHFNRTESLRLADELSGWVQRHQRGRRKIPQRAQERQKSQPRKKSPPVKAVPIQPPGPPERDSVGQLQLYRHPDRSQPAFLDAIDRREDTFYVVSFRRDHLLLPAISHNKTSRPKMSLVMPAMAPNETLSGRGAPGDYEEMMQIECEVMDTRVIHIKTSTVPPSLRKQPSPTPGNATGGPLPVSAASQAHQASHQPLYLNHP
Procedure: CREBL1 and ATF6 which were captured on the resin were used in the experiments in order to eliminate the influence of proteinaceous impurities contained in the soluble fractions prepared from the cells obtained by transfecting an expression plasmid of CREBL1 or ATF6. Three hundreds μl of each soluble fraction of CREBL1 and ATF6 was dispensed to six tubes (Nos. 1 to 6), followed by adding 20 μl of protein G sepharose 4 FF (Amersham) of 50% slurry that had been subjected to blocking with BSA, to each of tubes, subjected to overturned mixing at 4° C. for 1 hour, and then subjected to centrifugation (10,000 rpm, 10 sec, 4° C.) to collect the supernatant, and thus the pre-treatment (pre-clean) was performed. The resultant supernatant was mixed with 1.7 μl (2 μg) of anti-Myc antibody (Invitrogen), subjected to overturned mixing at 4° C. for 3 hours, followed by adding 20 μl of protein G sepharose 4 FF that had been subjected to blocking with BSA, and then subjected to overturned mixing at 4° C. overnight. Thus, CREBL1 and ATF6 were respectively captured on protein G sepharose 4 FF. […]

biotinylated CREBL1 = biological target: T2, biotinylated CREBL1 (Homo sapiens, UniProt Q99941); test: In vitro protease assay using biotinylated CREBL1 (degradation pattern); format: biochemical; conditions: 37° C., 4 hours or overnight
T2 construct: made in house; host or cells: cell-free: rabbit reticulocyte lysate (TNT Transcription/Translation System, Promega); the unpurified reaction solution was used
T2 sequence (Q99941 1-703): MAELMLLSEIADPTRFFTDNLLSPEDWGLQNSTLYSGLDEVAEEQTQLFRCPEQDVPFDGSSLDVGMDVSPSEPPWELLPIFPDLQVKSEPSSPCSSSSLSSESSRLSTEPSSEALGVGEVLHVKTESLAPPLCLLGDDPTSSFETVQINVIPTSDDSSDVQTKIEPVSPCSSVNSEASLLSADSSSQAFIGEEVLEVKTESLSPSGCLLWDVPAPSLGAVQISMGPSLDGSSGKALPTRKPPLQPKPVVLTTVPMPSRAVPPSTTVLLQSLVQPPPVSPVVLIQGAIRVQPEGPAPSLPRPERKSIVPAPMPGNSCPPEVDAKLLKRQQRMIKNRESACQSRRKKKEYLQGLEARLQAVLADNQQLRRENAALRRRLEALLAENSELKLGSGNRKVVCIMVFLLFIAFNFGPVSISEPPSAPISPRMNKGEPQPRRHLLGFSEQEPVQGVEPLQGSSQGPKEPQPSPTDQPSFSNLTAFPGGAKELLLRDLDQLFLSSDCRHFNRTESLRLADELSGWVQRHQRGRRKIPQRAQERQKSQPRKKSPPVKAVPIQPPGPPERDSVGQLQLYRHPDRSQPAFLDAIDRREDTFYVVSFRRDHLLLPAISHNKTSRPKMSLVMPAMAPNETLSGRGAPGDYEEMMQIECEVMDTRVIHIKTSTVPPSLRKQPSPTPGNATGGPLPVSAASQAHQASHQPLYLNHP
Procedure: More concretely, first, 1.5 μl of the animal cell expression plasmid for CREBL1 (1 μg/μl), 1 μl of 1 mM methionine, 1 μl of biotinylated lysine tRNA (Promega), and 6.5 μl of nuclease free water were added to 40 μl of in vitro translation reaction solution (TNT® Quick Master Mix) to obtain total volume of 50 μl, and reacted for at 30° C. for 1.5 hours. Following this, 12.5 μl of 50 μl reaction solution was sampled, followed by adding with 2×SDS sample buffer and boiling, to detect the expression of biotinylated CREBL1 by western blotting. The detection was carried out using streptavidin HRP (Promega) and Transcend™ Chemiluminescent substrate (Transcend™ Non-Radioactive Translation detection system; Promega). As a result, biotinylation of CREBL1 was confirmed in sample.
The reaction solution was used as the sample for protease assay. 12.5 μl each of the reaction solution was dispensed to three tubes (Nos. 2 to 4). 25 μl of 50 mM Tris-HCl (pH 7.5), 150 mM NaCl, 0.01% Triton X-100 was added as the control to tube No. 2, 25 μl of 200 μg/m mature HtrA2 solution was added to tube No. 3, and 25 μl of 200 μg/ml mature HtrA2 (S306A) solution was added to tube No. 4, respectively, and mixed. […]

B1: mature HtrA2: SEQ ID NO: 4; mature protein generated from HtrA2 precursor by cleavage of N-terminal 133 residues, has protease activity (protein, listed as Homo sapiens)
chain: MAVPSPPPASPRSQYNFIADVVEKTAPAVVYIEILDRHPFLGREVPISNGSGFVVAADGLIVTNAHVVADRRRVRVRLLSGDTYEAVVTAVDPVADIATLRIQTKEPLPTLPLGRSADVRQGEFVVAMGSPFALQNTITSGIVSSAQRPARDLGLPQTNVEYIQTDAAIDFGNSGGPLVNLDGEVIGVNTMKVTAGISFAIPSDRLREFLHRGEKKNSSSGISGSQRRYIGVMMLTLSPSILAELQLREPSFPDVQHGVLIHKVILGSPAHRAGLRPGDVILAIGEQMVQNAEDVYEAVRTQSQLAVQIRRGRETLTLYVTPEVTE
modifications: mature HtrA2
CREBL1
  degradation of CREBL1 (band by western blotting): the band of CREBL1 was reduced significantly
Biotinylated CREBL1; anti-Tag antibody
  degradation of N-terminal tagged-CREBL1, detecting the Tag: The band of N-terminal tagged-CREBL1 was reduced significantly
Biotinylated CREBL1; streptavidin HRP
  degradation of biotinylated CREBL1, detecting the biotin: The band of biotinylated CREBL1 was reduced significantly
